Substrate in this data set: N[C@@H](Cc1c[nH]c2ccccc12)C(=O)O
Kind of data set: HPLC-DAD quantitation of tryptamine, non-linear regression. It counts as biochemical, Camptotheca acuminata. The conditions noted are these: 4 μM PLP, 0.16 μM enzyme, 50 mM phosphate buffer pH 7.6, 37°C.

B1: CaTDC3 (Camptotheca acuminata) (protein)
chain: MGSLDSNYDTESPASVGQFNPLDPEEFRKQAHCIVDFIADYYKNIESYPVLSQVDPGYLHSRLPKNAPYRSEPFESILKDVQKDIIPGMTHWMSPNFFAYFPATVSSAAFVGEMLCTCFNSVGFNWLASPAATELEMVVIDWLANMLKLPKSFMFSGTGGGVLQGTTSEAILCTLIAARDRALEIVGVKNFNKLVVYGSDQTHSTYAKACKLAGILPCNIRSIPTTADSNFSVSPLLLRRAIEADKAAGMVPLYICATVGTTSTTAIDPLSSLADVANDYGVWFHVDAAYAGSACICPEFRHYLDGIERADSLSLSPHKWLLSYLDCCCLWVKSPSLLVKALSTDPEYLKNQPSESKSVVDYKDWQVGTGRRFKALRLWFVMRSYGVANLQSHIRTDVQMAKMFEGFVKSDPRFEILVPRVFSLVCFRLNPISGSDPTGTEALNRKLLDWVNSTGRVYMTHTKVGGIYMLRFAVGATLTEKRHVSSAWKLIKEGADVLLKED
notes: homodimer by homology model
Take B1: the Km came to 48 ± 2 µM and the kcat was 25.6 min^–1.

Broadly, the Km is the substrate concentration at which the rate is half of its maximum.
